The results in this text go back to patent US10233437B2, “Hypochlorite resistant cyanuric acid hydrolases and methods of use thereof” (REGENTS OF THE UNIVERSITY OF MINNESOTA, priority 2015, dated 2019).

Data set [1] is described as follows: Sensitivity of CAH to hydrogen peroxide. In kind it is biochemical. The note with it: 30 μM CAH, 8.5 mM H2O2. As to the method: (§1) To determine sensitivity of WT, C46A and C46S CAH to various oxidants or sulfhydryl reagents, purified protein (30 μM) was pre-incubated with or without the potential inhibitor, 8.5 mM hydrogen peroxide, 50 μM potassium permanganate, 22 μM (1 ppm) ozone or 20 mM iodoacetamide. At appropriate time points, aliquots of the protein samples were diluted 100 fold into a solution of 140 ppm cyanuric acid and incubated for 10 minutes before the cyanuric acid concentration was measured with the melamine turbidity assay (explained in previous document). The results are plotted as the log of the percent of untreated-protein activity as a function of treatment time.

A short description of data set [2]: Bleach sensitivity of CAH. The note with it: 30 μM protein pre-incubated with 1 mM bleach. It counts as biochemical. As to the method: To determine bleach sensitivity of WT, C46A and C46S CAH, purified protein (30 μM) was pre-incubated with or without 1 mM bleach. At appropriate time points, aliquots of the protein samples were diluted 100 fold into a solution of 140 ppm cyanuric acid and incubated for 10 minutes before the cyanuric acid concentration was measured with the melamine turbidity assay. The results are plotted as the log of the percent of untreated-protein activity as a function of treatment time.

Data set [3] is described as follows: Resistance of CAH to mercury (II) salt. As to conditions: 48 uM enzyme, 1.6 mM phenyl mercuric acetate, assayed after one minute. In kind it is biochemical. On the procedure: The effect of a common heavy metal, mercury, on the activity of WT and variant CAH was also tested. […] Specifically, mercury (II) salts were used to test resistance, which are known to be particularly damaging to proteins. The WT or C46A enzymes (48 uM) were incubated with 1.6 mM phenyl mercuric acetate; the WT CAH enzyme retained 1% activity (+/−13% error) (so it was 99% inactivated) while the C46A mutant enzyme retained 89% activity (+1-11%) (so it was completely resistant within experimental error) when assayed after one minute.

A short description of data set [4]: Sensitivity of CAH to iodoacetamide. As to conditions: 30 uM CAH, 20 mM iodoacetamide. It counts as biochemical. On the procedure: In addition to commonly used oxidants, the effect of a commonly used sulfhydryl reactive agent (iodoacetamide) was also tested on the activity of WT and variant CAH. It was reasoned that a sulfhydryl reactive compound might react with the cysteine sulfhydryl group of the wild-type protein to block substrate access to the active site much in the same way an oxidant could oxidize the cysteine sulfhydryl group and block active site access.
as §1

Data set [5] can be described thus: Cyanuric acid hydrolase activity (melamine turbidity assay). In kind it is biochemical. The note with it: 140 ppm cyanuric acid in phosphate buffered saline; 0.03 μM enzyme (0.12 μM for C46D, V, T). As to the method: To determine CAH activity, 0.03 μM enzyme was incubated with a 140 ppm cyanuric acid (CYA) solution in phosphate buffered saline (138 mM NaCl, 3 mM KCl, 10 mM Na2HPO4, 2 mM KH2PO4). For the WT protein and the C46A and C46S variants, fractions were removed every 5 minutes to assay CYA concentration using a modified melamine turbidity assay (Downes et al. 1984). An equal volume of melamine solution (2.5 mg/mL in water) was added to cyanuric acid samples and mixed thoroughly. The absorbance at 600 nm was read 2 minutes after mixing. For the severely impaired CAH proteins (C46D, V and T), 0.12 μM protein was used and fractions were removed every hour for CYA measurement. Specific activity (nmol min^−1 mg^−1) was calculated as the average of triplicate data at two time points.

Data set [6] in a line: Circular dichroism thermal melting. It counts as physicochemical. As to conditions: CD at 220 nm, 25 μM protein, 55 to 90° C. On the procedure: The circular dichroism (CD) measurements were performed on a Jasco J-815 spectrometer with 25 μM protein in 50 mM M Tris-HCl buffer, pH 7.2 in a 1 mm path length cell. For thermal melting, the changes in CD spectra at of the proteins were sampled at 220 nm every 1° C. during continuous heating the solutions from 55 to 90° C. at 1 degree per minute. Data were normalized to the initial reading at 55 C.
In general terms: CD spectra are sensitive to the conformation of chiral molecules.

Data set [7] can be described thus: Inactivation of CAH by Michael addition. In kind it is biochemical. As to conditions: 30 uM enzyme, 350 uM N-ethylmaleimide. As to the method:
Inactivation of the WT and variant CAH from a Michael addition reaction was also investigated using N-ethylmaleimide. Specifically, the WT or C46A enzymes (30 uM) were incubated with 350 uM N-ethylmaleimide.

B1: C46A: Moorella thermoacetica CAH with cysteine at residue 46 replaced with alanine (protein)
chain: MQKVEVFRIPTASPDDISGLATLIDSGKINPAEIVAILGKTEGNGAVNDFTRGFATQSLAMYLAEKLGISREEVVKKVAFIMSGGTEGVMTPHITVFVRKDVQEPAKPGKRLAVGVAFTRDFLPEELGRMEQVNEVARAVKEAMKDAQIDDPRDVHFVQIKCPLLTAERIEDAKRRGKDVVVNDTYKSMAYSRGASALGVALALGEISADKISNEAICHDWNLYSSVASTSAGVELLNDEIIVVGNSTNSASDLVIGHSVMKDAIDADAVRAALKDAGLKFDCCPPAEELAKIVNVLAKAEAASSGTVRGRRNTMLDDSDINHTRSARAVVNAVIASVVGDPMVYVSGGAEHQGPDGGGPIAVIARV
As for B1, the “Decrease of sensitivity to hydrogen peroxide versus wild-type” value in data set [1] is listed as “over four-fold”. Besides, in data set [2], the “Resistance to inactivation by bleach” value is reported as “largely resistant to inactivation by bleach”. In data set [3], the Activity retained worked out at 89%. Further, the “Effect of iodoacetamide on activity” value in data set [4] is given as “not affected”. In data set [5], this molecule gave a Specific activity of 10.03 µmol/min/mg. The “Thermal melting curve compared to WT” value in data set [6] was “very closely resemble the WT curve”. In addition, the “Protection from inactivation by N-ethylmaleimide” value in data set [7] is recorded as “completely protected”.

B2: C46S: Moorella thermoacetica CAH with cysteine at residue 46 replaced with serine (protein)
chain: MQKVEVFRIPTASPDDISGLATLIDSGKINPAEIVAILGKTEGNGSVNDFTRGFATQSLAMYLAEKLGISREEVVKKVAFIMSGGTEGVMTPHITVFVRKDVQEPAKPGKRLAVGVAFTRDFLPEELGRMEQVNEVARAVKEAMKDAQIDDPRDVHFVQIKCPLLTAERIEDAKRRGKDVVVNDTYKSMAYSRGASALGVALALGEISADKISNEAICHDWNLYSSVASTSAGVELLNDEIIVVGNSTNSASDLVIGHSVMKDAIDADAVRAALKDAGLKFDCCPPAEELAKIVNVLAKAEAASSGTVRGRRNTMLDDSDINHTRSARAVVNAVIASVVGDPMVYVSGGAEHQGPDGGGPIAVIARV
As to B2, the “Decrease of sensitivity to hydrogen peroxide versus wild-type” value in data set [1] is “over four-fold”. Besides, in data set [2], the “Resistance to inactivation by bleach” value is on record as “largely resistant to inactivation by bleach”. The same molecule returned a Specific activity in data set [5] of 6.972 µmol/min/mg. Besides, in data set [6], the “Thermal melting curve compared to WT” value is reported as “very closely resemble the WT curve”.
